Data: publication PMC2115152 (The Journal of Cell Biology, 1988)

Biological target: F-actin (rabbit, UniProt P68135 1-377)
Assay: co-sedimentation

stoichiometry N: ~6 actin monomers per 83-kD protein
B1: 83-kD nonmuscle caldesmon (natural protein)
chain: MLSRSGSQGRRCLATLSQIAYQRNDDDEEEAARERRRRARQERLRQKQEEESLGQVTDQVEAHVQNSAPDEESKPATANAQVEGDEEAALLERLARREERRQKRLQEALERQKEFDPTITDGSLSVPSRRMQNNSAENETAEGEEKGESRSGRYEMEETEVVITSYQKNSYQDAEDKKKEEKEEEEEEEKLKGGNLGENQIKDEKIKKDKEPKEEVKNFLDRKKGFTEVKAQNGEFMTHKLKQTENAFSPSRSGGRASGDKEAEGAPQVEAGKRLEELRRRRGETESEEFEKLKQKQQEAALELEELKKKREERRKVLEEEEQRRKQEEADRKAREEEEKRRLKEEIERRRAEAAEKRQKMPEDGLSEDKKPFKCFTPKGSSLKIEERAEFLNKSVQKSGVKSTHQAAVVSKIDSRLEQYTNAIEGTKASKPMKPAASDLPVPAEGVRNIKSMWEKGSVFSSPSASGTPNKETAGLKVGVSSRINEWLTKSPDGNKSPAPKPSDLRPGDVSGKRNLWEKQSVDKVTSPTKV
